First the molecules themselves.
B1: UbiA prenyltransferase domain-containing protein 1 (Homo sapiens), Q9Y5Z9 (parent)
chain: MAASQVLGEKINILSGETVKAGDRDPLGNDCPEQDRLPQRSWRQKCASYVLALRPWSFSASLTPVALGSALAYRSHGVLDPRLLVGCAVAVLAVHGAGNLVNTYYDFSKGIDHKKSDDRTLVDRILEPQDVVRFGVFLYTLGCVCAACLYYLSPLKLEHLALIYFGGLSGSFLYTGGIGFKYVALGDLIILITFGPLAVMFAYAIQVGSLAIFPLVYAIPLALSTEAILHSNNTRDMESDREAGIVTLAILIGPTFSYILYNTLLFLPYLVFSILATHCTISLALPLLTIPMAFSLERQFRSQAFNKLPQRTAKLNLLLGLFYVFGIILAPAGSLPKI

The test covers variants of B1. The settings on record: with rash_human HRAS.
For R54A;P55A;W56A;S57A, the “effect of a mutation on the interaction” value is given as “disrupting interaction”. As for N102S, the entry is “disrupting interaction”.
